Experimental findings from article PMC7658014 are described below.

This series concerns the target T1, His6-OpaR (Vibrio parahaemolyticus (VP93?)) (UniProt Q79YV4).
T1 sequence: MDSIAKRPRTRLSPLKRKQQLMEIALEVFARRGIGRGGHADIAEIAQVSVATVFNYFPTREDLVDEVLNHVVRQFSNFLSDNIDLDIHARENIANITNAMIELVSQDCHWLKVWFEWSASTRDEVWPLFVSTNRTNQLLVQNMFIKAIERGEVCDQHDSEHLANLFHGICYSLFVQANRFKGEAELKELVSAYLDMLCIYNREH
As to the kind of experiment: EMSA. To be noted: EMSA: 0.4 ng probe, 20 uL of 100 mM HEPES pH 7.6, 5 mM EDTA, 50 mM (NH4)2SO4, 5 mM DTT, 1% Tween 20, 150 mM KCl, 25 C, 30 min; footprinting: 75 ng probe, DIG …. On the technique in general: In EMSA bound probe runs differently from free probe, usually more slowly.

“GCGCCAAAATGGCATAGAAAGGTGAAGAATAGCATTACATTGAAAAATAACAAAAGGGCAGTGCGTGATCGCACTGCCCTTTTAATAATCAGATTGATAGTAAGATTAACTCTTCGAGCTTTATCACCAAGAGTGATGAATCAATCG (double strand) [degS P1]”: the binding entry is “binds”.

As to “GGTTTATCCTATAAATTGCGGATATTTTAAGAAATTAATATTCATTAAATTGATAACTGGCGACGGATCTTTATGATGACGGTTGATATGCCGATAGAGCACTCATTAGCCAGT (double strand) [lytM P1]”, the binding result is listed as “binds”.
